Results published in the supplement of paper PMC7125110.
± gives the standard error. This sample holds only a part of the variants without activity.

B1: glmS ribozyme (parent)
chain: AUAAAAGCGCCAGAACUACAGAAAUGUAGUUGACGAGGAGGAGGUUUAUCGAAUUUUCGGCGGAUGCCUCCAAA

Variants of: B1
Assay: self-cleavage kobs at 640 uM GlcN6P; higher = faster cleavage; RNA array
Conditions: with glucosamine-6-phosphate
In short: (§1)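 Using a hybridised Cy3 probe at 37 °C, barcoded ribozyme variants transcribed in situ by E. coli RNA polymerase on sequenced MiSeq chips were monitored across tiles imaged over ~14 h. The flow contained glucosamine-6-phosphate from 40 μM to 10 mM in HEPES/KCl/Mg(OAc)2 buffer. Signals were normalised to baseline and to non-cleaving reference variants before per-tile medians were fit to one- or two-exponential decays to yield kobs. Weighted Michaelis–Menten fits across concentrations gave kcat and KM.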

| Variant | self-cleavage kobs at 640 uM GlcN6P [s⁻¹] |
| --- | --- |
| C58U C67U C68U C71U | 0.000646 ± 0.00029 |
| A14G C34U A52C C68U C70U | 8.57e-05 ± 4.2e-05 |
| C11G G29C A52G U55A C58A | < 1e-05 |
| C8U G62A C70U | 6.07e-05 ± 2.6e-05 |
| A14G U30A A36U C58U G66U | < 1e-05 |
| G37U A39U A52C G59A | < 1e-05 |
| A33U U55C C70U | < 1e-05 |
| C8U G13A U46A G51C G59A | < 1e-05 |
| G35C C67G C71G | < 1e-05 |
| A39G G60A U69G | < 1e-05 |
| A39U G63C C71G | < 1e-05 |
| G38A G59C G62U | < 1e-05 |
| U30A U31A G66A | 0.000765 ± 0.00037 |
| C58G C68A | 0.000125 ± 3e-05 |
| C11U U54G C58A C67G | 0.000225 ± 7.2e-05 |
| C10G A14G U31A C34U G51C A53U U54C G66U | < 1e-05 |
| A23C C68U | 0.00205 ± 0.00047 |
| G51C A52C G60A | < 1e-05 |
| U31G A33C C50U U56C A64G | < 1e-05 |
| A33U A39U G41C G43A C70G | < 1e-05 |
| U31A A33U A48G | < 1e-05 |
| G32C G35U G59A | < 1e-05 |
| U30G C34A U47A | < 1e-05 |
| G43A G44A C68U | 0.000159 ± 6.2e-05 |
| U45A U46C U47G C70U | 0.000175 ± 8.3e-05 |
| A36C G38A A53U C68G | 9.97e-05 ± 4.4e-05 |

| Variant | self-cleavage kobs at 640 uM GlcN6P [s⁻¹] |
| --- | --- |
| A14G C34U | < 1e-05 |
| C16G G41C G62A A64G | < 1e-05 |
| C11G C16U G37A U45C A64G | < 1e-05 |
| G9A G35U U47A C70U | < 1e-05 |
| A14G G32C U45A C70G | < 1e-05 |
| G32C G51C A64G C70U | < 1e-05 |
| U30G A36U A42C A64U C67G | < 1e-05 |
| A12C U30G U45C C50A A52U | < 1e-05 |
| A39U U56A U65G | 0.000165 ± 4.5e-05 |
| A12G G63A A64C | < 1e-05 |
| A6U G37C G40A | < 1e-05 |
| G40A A52C G59A C68U | < 1e-05 |
| A6C A53U C70U | 6.59e-05 ± 3.2e-05 |
| A42U G51C G59U | < 1e-05 |
| C11A C16G A42U U56G C71U | < 1e-05 |
| A52G U55A C71A | 7.88e-05 ± 2.3e-05 |
| G32C A42U A53G U57A A64G | < 1e-05 |
| G41A C58U C70G | < 1e-05 |
| C11A G59A C61G C70A | 0.000163 ± 7.6e-05 |
| U30C U46G C70U | 4.5e-05 ± 2e-05 |
| G7U C16A G37U U45G | < 1e-05 |
| G29C G43U A48G C71A | < 1e-05 |
| C11G G13A C70G | 0.000406 ± 0.00015 |
| G32A U57A C70G | 0.000649 ± 0.00023 |
| A33U U57G C68G | 0.000105 ± 2.8e-05 |
| C11U G60A | < 1e-05 |

Variants of: B1
Assay: self-cleavage kobs at 2500 uM GlcN6P; higher = faster cleavage; RNA array
Conditions: with glucosamine-6-phosphate
In short: as §1

| Variant | self-cleavage kobs at 2500 uM GlcN6P [s⁻¹] |
| --- | --- |
| C11G G29C A52G U55A C58A | < 1e-05 |
| A14U A36U G41A A48G C68U | < 1e-05 |
| U46A U56G C58U G59U | < 1e-05 |
| A39U G66A C68G | 4.5e-05 ± 2e-05 |
| C11G C61A G62C | < 1e-05 |
| G7U C11A A14C A15C A33C U46G A48G C61U C67A | < 1e-05 |
| A52G U57G C58U | 4.96e-05 ± 1.8e-05 |
| A39U G63C C71G | < 1e-05 |
| A36U G38C U69C | < 1e-05 |
| C11U U54G C58A C67G | 5.14e-05 ± 2e-05 |
| G35A C50G U54G A64C | 7.23e-05 ± 2.7e-05 |
| A23C C68U | 0.00111 ± 0.00026 |
| C16G G32U G44A G60A | < 1e-05 |
| U31G A33C C50U U56C A64G | < 1e-05 |
| U31A A33U A48G | < 1e-05 |
| G32C G35U G59A | < 1e-05 |
| C8A A53C U55C G60U C68G | < 1e-05 |
| C16G G41C G62A A64G | < 1e-05 |
| G9A G35U U47A C70U | < 1e-05 |
| C16G G43U U45A U65G C68U C70U | < 1e-05 |

| Variant | self-cleavage kobs at 2500 uM GlcN6P [s⁻¹] |
| --- | --- |
| A39G C50U U55A C70U | 4.43e-05 ± 1.7e-05 |
| U30G A36U A42C A64U C67G | < 1e-05 |
| A6U G37C G40A | < 1e-05 |
| G32C A64G C70A | < 1e-05 |
| C11A C16G A42U U56G C71U | < 1e-05 |
| A15G A33U G40U G41A | < 1e-05 |
| C50G U56G G59U | 8.66e-05 ± 3.9e-05 |
| A52G U55A C71A | 0.000169 ± 7.2e-05 |
| G32C A42U A53G U57A A64G | < 1e-05 |
| A15U G44U C71U | < 1e-05 |
| G41A C58U C70G | < 1e-05 |
| A48U G51A U57A | < 1e-05 |
| C11A G43U U54G | < 1e-05 |
| G29C G43U A48G C71A | < 1e-05 |
| C11A A14U C71U | 6.69e-05 ± 2.1e-05 |
| C11G G13A C70G | 6.69e-05 ± 3.1e-05 |
| G38C A53U | < 1e-05 |
| A33U U57G C68G | 0.000205 ± 7e-05 |
| C11U G60A | < 1e-05 |

Variants of: B1
Assay: self-cleavage kobs at 10000 uM GlcN6P; higher = faster cleavage; RNA array
Conditions: with glucosamine-6-phosphate
In short: as §1

| Variant | self-cleavage kobs at 10000 uM GlcN6P [s⁻¹] |
| --- | --- |
| C11G G29C A52G U55A C58A | < 1e-05 |
| A14G C34U | < 1e-05 |
| A39U U56A U65G | 0.00113 ± 0.00025 |
| A15G A33U G40U G41A | < 1e-05 |
| A15U G44U C71U | < 1e-05 |
| C11A A14U C71U | 4.6e-05 ± 1.3e-05 |
| G38C A53U | < 1e-05 |
| C11U G60A | < 1e-05 |
